We go through three substances from publication PMC5006643.

For this assay, the target named is pV2α-Tys, tyrosine-sulfated 18-mer V2 mimetic peptide (aa. 168-185 of HIV-1 BaL gp120) (HIV-1 (isolate BaL)). The assay is described as follows: SPR.

Broadly, the Kd is the concentration at which binding is half-saturated. Low readings indicate higher affinity, high ones lower affinity. What is called koff is a measure of how fast the partners let go of each other. Low values mean slow dissociation, high ones fast dissociation. A word on the kon: it is the rate constant with which the complex forms. The low end stands for slow association, the high end for fast association. Turning to “BG505 SOSIP.664 trimer pre-treated with the CD4 mimic CD4-M48U (from UniProt Q2N0S6 1-860; Q2N0S6 1-860) (complex)”, the Kd is 161 nM, the off-rate constant (koff) was 0.005 s⁻¹ and the kon came to 31000 M⁻¹ s⁻¹.

“gp120 (BaL) pre-complexed with the CD4 mimic CD4-M48U” showed a dissociation constant Kd of 69.1 nM, a koff of 0.00334 s⁻¹ and a kon of 48300 M⁻¹ s⁻¹.

“recombinant monomeric gp120 (HIV-1 strain BaL) (natural protein)” displayed a Kd of 79.1 nM, an off-rate (koff) of 0.00189 s⁻¹ and a kon of 23900 M⁻¹ s⁻¹.
